Reference: patent publication US20020193571A1 (published 2002)

Biological target: T1, human WSX receptor (hWSXR), antigen of the phage antigen-binding ELISA (human, UniProt P48357 22-841)
T1 construct: both panning antigens hold the ECD; also called huWSXR
T1 sequence: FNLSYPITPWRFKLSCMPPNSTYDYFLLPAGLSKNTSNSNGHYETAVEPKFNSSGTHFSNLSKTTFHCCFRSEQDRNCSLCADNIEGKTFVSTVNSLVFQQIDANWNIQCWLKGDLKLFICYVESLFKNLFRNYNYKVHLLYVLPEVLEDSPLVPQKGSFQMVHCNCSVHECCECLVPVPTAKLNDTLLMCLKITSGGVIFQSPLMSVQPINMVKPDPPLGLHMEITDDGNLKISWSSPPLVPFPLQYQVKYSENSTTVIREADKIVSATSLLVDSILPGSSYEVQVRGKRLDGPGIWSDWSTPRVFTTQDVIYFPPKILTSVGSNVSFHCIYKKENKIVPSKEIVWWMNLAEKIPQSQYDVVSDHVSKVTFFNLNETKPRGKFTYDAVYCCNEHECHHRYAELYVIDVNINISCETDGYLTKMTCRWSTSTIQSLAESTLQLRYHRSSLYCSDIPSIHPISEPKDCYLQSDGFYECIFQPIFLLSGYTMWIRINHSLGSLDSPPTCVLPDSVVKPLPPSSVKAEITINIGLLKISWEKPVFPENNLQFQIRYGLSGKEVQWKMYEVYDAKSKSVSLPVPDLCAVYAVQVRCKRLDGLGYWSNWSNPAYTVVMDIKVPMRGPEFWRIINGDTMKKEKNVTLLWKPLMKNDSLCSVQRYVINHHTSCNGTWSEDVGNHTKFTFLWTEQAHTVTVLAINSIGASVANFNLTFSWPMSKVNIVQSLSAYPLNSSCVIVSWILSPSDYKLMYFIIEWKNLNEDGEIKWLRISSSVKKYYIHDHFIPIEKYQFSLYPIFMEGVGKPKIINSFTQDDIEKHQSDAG
Assay: phage antigen-binding ELISA

B1: agonist antibody clone #17 scFv (scFv)
scFv: QVRLQQSGGGLVQPGRSLRLSCAASGFTFDDYAMHWVRQAPGKGLEWVSGMTWNSGSIGYADSVKGRFTISRDNAKNSLYLQMNSLRAEDTAVYYCAREPHNTDAFDIWGRGTLVTVSSGGGGPGGGGSGGGGSDVVMTQSPSFLSAFVGDTITITCRASQGIYNYLAWYQQKPGKAPKLLIYAASTLQSGVPSRFSGSGSGTEFTLTISSLQPEDFGTYYCQQLISYPLTFGGGTKVEIK
notes: Human scFv from a phage library; tested as scFv phage and as soluble scFv
Does B1 bind?
Result: binds

B2: agonist antibody clone #3 scFv (scFv)
scFv: EVQLVQSGAEVKKPGASVKVSCKASGYTFTGYYMYWVRQAPGQGLEWMGWINPNSGGTNYAQKFQGRVTMTRDTSIGTAYMELSRLSSDDTAVYYCARDRYYGSSAYHRGSYYMDVWGRGTLVTVSSGGGGTGGGGSGGGGSSELTQDPAVSVALGQTVRITCQGDSLRSYYASWYQQKPGQAPVLVIYGKNNRPSGIPDRFSGSSSGNTASLTITGAQAEDEADYYCNSRDSSGNHVVFGGGTKLTVL
notes: Human scFv from a phage library
Does B2 bind?
Result: binds
